Reference: article PMC9352680, “A comprehensive thermodynamic model for RNA binding by the Saccharomyces cerevisiae Pumilio protein PUF4”

T1: PUF4 RNA-binding domain (Saccharomyces cerevisiae, UniProt P25339 537-888)
T1 sequence: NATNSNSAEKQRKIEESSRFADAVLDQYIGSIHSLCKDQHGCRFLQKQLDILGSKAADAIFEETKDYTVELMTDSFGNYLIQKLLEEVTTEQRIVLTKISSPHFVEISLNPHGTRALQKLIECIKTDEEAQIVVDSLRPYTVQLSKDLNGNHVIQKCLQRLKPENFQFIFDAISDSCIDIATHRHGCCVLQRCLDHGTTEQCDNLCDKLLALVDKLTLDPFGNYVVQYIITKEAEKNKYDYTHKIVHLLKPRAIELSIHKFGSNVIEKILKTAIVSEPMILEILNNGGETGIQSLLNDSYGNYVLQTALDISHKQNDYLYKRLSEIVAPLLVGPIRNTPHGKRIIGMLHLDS


Target: T1, PUF4 RNA-binding domain
Assay: Mg; RNA-MaP; 20 mM Na-HEPES pH 7.4, 30 mM KOAc, 0.75 mM MgCl2, 0.1% Tween-20, 5% glycerol, 0.1 mg/mL BSA, 2 mM DTT; 25 C; 0.0125-409.6 nM protein
Conditions: tags: N-His6-TEV cleaved; C-SNAP kept, Cy3B-labelled; label: tethered on chip by stalled RNA polymerase

Row | Binder | Kd [nM]
1 | Id_ii_S2_P4E.3_K4.2_C4.2_[T-1G]_H4.2_A4.1_F4.1_T4.2_[G10A]_[T11G] (ssRNA) RNA: UUUGAUUAAUAUGAUAUCGUUCUUUCUCGUAUAUAUUAAGUUCUUUCUCGAUAUCAUAUUAAUCUUU | 266
2 | Id_ii_S2_P4E.3_K4.2_C4.2_[T-1G]_H4.2_A4.1_F4.1_T4.2_[G10A]_[T11C] (ssRNA) RNA: UUUGAUUAAUAUGAUAUCGUUCUUUCUCGUAUAUAUUAACUUCUUUCUCGAUAUCAUAUUAAUCUUU | 22.8
3 | Id_ii_S2_P4E.3_K4.2_C4.2_[T-1G]_H4.2_A4.1_F4.1_T4.2_[G10A]_[T11A] (ssRNA) RNA: UUUGAUUAAUAUGAUAUCGUUCUUUCUCGUAUAUAUUAAAUUCUUUCUCGAUAUCAUAUUAAUCUUU | 20.5
4 | Id_ii_S2_P4E.3_K4.2_C4.2_[T-1C]_H4.2_A4.1_F4.1_T4.2_[G10C]_[T11G] (ssRNA) RNA: UUUGAUUAAUAUGAUAUCGUUCUUUCUCCUAUAUAUUACGUUCUUUCUCGAUAUCAUAUUAAUCUUU | 9.56
5 | Id_ii_S2_P4E.3_K4.2_C4.2_[T-1C]_H4.2_A4.1_F4.1_T4.2_[G10C]_[T11A] (ssRNA) RNA: UUUGAUUAAUAUGAUAUCGUUCUUUCUCCUAUAUAUUACAUUCUUUCUCGAUAUCAUAUUAAUCUUU | 9.95
6 | Id_ii_S2_P4E.3_K4.2_C4.2_[T-1C]_H4.2_A4.1_F4.1_T4.2_[G10T]_[T11G] (ssRNA) RNA: UUUGAUUAAUAUGAUAUCGUUCUUUCUCCUAUAUAUUAUGUUCUUUCUCGAUAUCAUAUUAAUCUUU | 5.86
7 | Id_ii_S2_P4E.3_K4.2_C4.2_[T-1C]_H4.2_A4.1_F4.1_T4.2_[G10T]_[T11A] (ssRNA) RNA: UUUGAUUAAUAUGAUAUCGUUCUUUCUCCUAUAUAUUAUAUUCUUUCUCGAUAUCAUAUUAAUCUUU | 17
8 | UCUCUUUGUCUUAUUCUCUCUU (ssRNA) [Ib_S1_P5E.1_K5.1_C5.1_H5.1_[A4C]_A5.1_F5.1_[A10C]_T5.1] | 1350
9 | Id_ii_S2_P4E.3_K4.2_C4.2_[T-1C]_H4.2_A4.1_F4.1_T4.2_[G10T] (ssRNA) RNA: UUUGAUUAAUAUGAUAUCGUUCUUUCUCCUAUAUAUUAUUUUCUUUCUCGAUAUCAUAUUAAUCUUU | 3.61
10 | Id_ii_S2_P4E.3_K4.2_C4.2_[T-1C]_H4.2_A4.1_F4.1_T4.2_[G10A]_[T11A] (ssRNA) RNA: UUUGAUUAAUAUGAUAUCGUUCUUUCUCCUAUAUAUUAAAUUCUUUCUCGAUAUCAUAUUAAUCUUU | 12.2
11 | Id_ii_S2_P4E.3_K4.2_C4.2_[T-1C]_H4.2_A4.1_F4.1_T4.2_[G10A] (ssRNA) RNA: UUUGAUUAAUAUGAUAUCGUUCUUUCUCCUAUAUAUUAAUUUCUUUCUCGAUAUCAUAUUAAUCUUU | 7.32
12 | Id_ii_S2_P4E.3_K4.2_C4.2_[T-1A]_H4.2_A4.1_F4.1_T4.2_[G10C]_[T11G] (ssRNA) RNA: UUUGAUUAAUAUGAUAUCGUUCUUUCUCAUAUAUAUUACGUUCUUUCUCGAUAUCAUAUUAAUCUUU | 32.8
13 | Id_ii_S2_P4E.3_K4.2_C4.2_[T-1A]_H4.2_A4.1_F4.1_T4.2_[G10C]_[T11C] (ssRNA) RNA: UUUGAUUAAUAUGAUAUCGUUCUUUCUCAUAUAUAUUACCUUCUUUCUCGAUAUCAUAUUAAUCUUU | 10.3
14 | Id_ii_S2_P4E.3_K4.2_C4.2_[T-1A]_H4.2_A4.1_F4.1_T4.2_[G10C]_[T11A] (ssRNA) RNA: UUUGAUUAAUAUGAUAUCGUUCUUUCUCAUAUAUAUUACAUUCUUUCUCGAUAUCAUAUUAAUCUUU | 16.3
15 | Id_ii_S2_P4E.3_K4.2_C4.2_[T-1A]_H4.2_A4.1_F4.1_T4.2_[G10C] (ssRNA) RNA: UUUGAUUAAUAUGAUAUCGUUCUUUCUCAUAUAUAUUACUUUCUUUCUCGAUAUCAUAUUAAUCUUU | 7.44
16 | Id_ii_S2_P4E.3_K4.2_C4.2_[T-1A]_H4.2_A4.1_F4.1_T4.2_[G10T] (ssRNA) RNA: UUUGAUUAAUAUGAUAUCGUUCUUUCUCAUAUAUAUUAUUUUCUUUCUCGAUAUCAUAUUAAUCUUU | 8.24
17 | Id_ii_S2_P4E.3_K4.2_C4.2_[T-1A]_H4.2_A4.1_F4.1_T4.2_[G10A]_[T11G] (ssRNA) RNA: UUUGAUUAAUAUGAUAUCGUUCUUUCUCAUAUAUAUUAAGUUCUUUCUCGAUAUCAUAUUAAUCUUU | 360
18 | Id_ii_S2_P4E.3_K4.2_C4.2_[T-1A]_H4.2_A4.1_F4.1_T4.2_[G10A]_[T11C] (ssRNA) RNA: UUUGAUUAAUAUGAUAUCGUUCUUUCUCAUAUAUAUUAACUUCUUUCUCGAUAUCAUAUUAAUCUUU | 17.8
19 | UCUCUUUGUUUUAUUCUCUCUU (ssRNA) [Ib_S1_P5E.1_K5.1_C5.1_H5.1_[A4T]_A5.1_F5.1_[A10C]_T5.1] | 899
20 | Id_ii_S2_P4E.3_K4.2_C4.2_[T-1A]_H4.2_A4.1_F4.1_T4.2_[G10A]_[T11A] (ssRNA) RNA: UUUGAUUAAUAUGAUAUCGUUCUUUCUCAUAUAUAUUAAAUUCUUUCUCGAUAUCAUAUUAAUCUUU | 37.6
21 | Id_ii_S2_P4E.3_K4.2_C4.2_[T-1A]_H4.2_A4.1_F4.1_T4.2_[G10A] (ssRNA) RNA: UUUGAUUAAUAUGAUAUCGUUCUUUCUCAUAUAUAUUAAUUUCUUUCUCGAUAUCAUAUUAAUCUUU | 10.1
22 | Id_ii_S2_P4E.3_K4.2_C4.2_[T-1A]_H4.2_A4.1_F4.1_T4.2_[T11G] (ssRNA) RNA: UUUGAUUAAUAUGAUAUCGUUCUUUCUCAUAUAUAUUAGGUUCUUUCUCGAUAUCAUAUUAAUCUUU | 46.4
23 | Id_ii_S2_P4E.3_K4.2_C4.2_[T-1A]_H4.2_A4.1_F4.1_T4.2 (ssRNA) RNA: UUUGAUUAAUAUGAUAUCGUUCUUUCUCAUAUAUAUUAGUUUCUUUCUCGAUAUCAUAUUAAUCUUU | 8.89

Row | Binder | Kd [nM]
24 | Id_ii_S2_P4E.3_K4.2_C4.2_H4.2_A4.1_F4.1_T4.2_[G10C]_[T11G] (ssRNA) RNA: UUUGAUUAAUAUGAUAUCGUUCUUUCUCUUAUAUAUUACGUUCUUUCUCGAUAUCAUAUUAAUCUUU | 18.8
25 | Id_ii_S2_P4E.3_K4.2_C4.2_H4.2_A4.1_F4.1_T4.2_[G10C]_[T11A] (ssRNA) RNA: UUUGAUUAAUAUGAUAUCGUUCUUUCUCUUAUAUAUUACAUUCUUUCUCGAUAUCAUAUUAAUCUUU | 8.35
26 | Id_ii_S2_P4E.3_K4.2_C4.2_H4.2_A4.1_F4.1_T4.2_[G10T]_[T11C] (ssRNA) RNA: UUUGAUUAAUAUGAUAUCGUUCUUUCUCUUAUAUAUUAUCUUCUUUCUCGAUAUCAUAUUAAUCUUU | 4.61
27 | Id_ii_S2_P4E.3_K4.2_C4.2_H4.2_A4.1_F4.1_T4.2_[G10T] (ssRNA) RNA: UUUGAUUAAUAUGAUAUCGUUCUUUCUCUUAUAUAUUAUUUUCUUUCUCGAUAUCAUAUUAAUCUUU | 3.81
28 | Id_ii_S2_P4E.3_K4.2_C4.2_H4.2_A4.1_F4.1_T4.2_[G10A]_[T11C] (ssRNA) RNA: UUUGAUUAAUAUGAUAUCGUUCUUUCUCUUAUAUAUUAACUUCUUUCUCGAUAUCAUAUUAAUCUUU | 14
29 | Id_ii_S2_P4E.3_K4.2_C4.2_H4.2_A4.1_F4.1_T4.2_[G10A] (ssRNA) RNA: UUUGAUUAAUAUGAUAUCGUUCUUUCUCUUAUAUAUUAAUUUCUUUCUCGAUAUCAUAUUAAUCUUU | 9.82
30 | UCUCUUUGUCUUAUUUUCUCUU (ssRNA) [Ib_S1_P5E.1_K5.1_C5.1_H5.1_[A4C]_A5.1_F5.1_[A10T]_T5.1] | 775
31 | Id_ii_S2_P4E.3_K4.2_C4.2_H4.2_A4.1_F4.1_T4.2_[T11C] (ssRNA) RNA: UUUGAUUAAUAUGAUAUCGUUCUUUCUCUUAUAUAUUAGCUUCUUUCUCGAUAUCAUAUUAAUCUUU | 7.25
32 | If_S2_P4E.3_K4.2_C4.2_H4.2_A4.1_F4.1_T4.2 (ssRNA) RNA: UUUGAUUAAUAUGAUAUCGUUCUUUCUCUUAUAUAUUAGUUUCUUUCUCGAUAUCAUAUUAAUCUUU | 10.4
33 | Id_ii_S2_P4E.4_K4.3_C4.2_[C-2G]_[T-1C]_H4.3_A4.1_F4.1_T4.2_[G10A]_[T11A] (ssRNA) RNA: UUUGAUUAAUAUGAUAUCGUUCUUUCUGCACACUAUUAAAUUCUUUCUCGAUAUCAUAUUAAUCUUU | 23.6
34 | Id_ii_S2_P4E.4_K4.3_C4.2_[C-2G]_[T-1C]_H4.3_A4.1_F4.1_T4.2 (ssRNA) RNA: UUUGAUUAAUAUGAUAUCGUUCUUUCUGCACACUAUUAGUUUCUUUCUCGAUAUCAUAUUAAUCUUU | 448
35 | Id_ii_S2_P4E.4_K4.3_C4.2_[C-2G]_H4.3_A4.1_F4.1_T4.2_[G10C]_[T11C] (ssRNA) RNA: UUUGAUUAAUAUGAUAUCGUUCUUUCUGUACACUAUUACCUUCUUUCUCGAUAUCAUAUUAAUCUUU | 0.865
36 | Id_ii_S2_P4E.4_K4.3_C4.2_[C-2G]_H4.3_A4.1_F4.1_T4.2_[G10T]_[T11A] (ssRNA) RNA: UUUGAUUAAUAUGAUAUCGUUCUUUCUGUACACUAUUAUAUUCUUUCUCGAUAUCAUAUUAAUCUUU | 0.496
37 | Id_ii_S2_P4E.4_K4.3_C4.2_[C-2G]_H4.3_A4.1_F4.1_T4.2_[G10A]_[T11C] (ssRNA) RNA: UUUGAUUAAUAUGAUAUCGUUCUUUCUGUACACUAUUAACUUCUUUCUCGAUAUCAUAUUAAUCUUU | 0.5
38 | Id_ii_S2_P4E.4_K4.3_C4.2_[C-2G]_H4.3_A4.1_F4.1_T4.2_[G10A]_[T11A] (ssRNA) RNA: UUUGAUUAAUAUGAUAUCGUUCUUUCUGUACACUAUUAAAUUCUUUCUCGAUAUCAUAUUAAUCUUU | 0.354
39 | Id_ii_S2_P4E.4_K4.3_C4.2_[C-2G]_H4.3_A4.1_F4.1_T4.2_[G10A] (ssRNA) RNA: UUUGAUUAAUAUGAUAUCGUUCUUUCUGUACACUAUUAAUUUCUUUCUCGAUAUCAUAUUAAUCUUU | 0.412
40 | Id_ii_S2_P4E.4_K4.3_C4.2_[C-2T]_[T-1C]_H4.3_A4.1_F4.1_T4.2_[G10C]_[T11C] (ssRNA) RNA: UUUGAUUAAUAUGAUAUCGUUCUUUCUUCACACUAUUACCUUCUUUCUCGAUAUCAUAUUAAUCUUU | > 2300
41 | UCUCUUUGCAUUAUUAUCUCUU (ssRNA) [Ia_S1_P5E.1_K5.1_C5.1_H5.1_[T3C]_A5.1_F5.1_T5.1] | 1250
42 | UCUCUUUGUUUUAUUUUCUCUU (ssRNA) [Ib_S1_P5E.1_K5.1_C5.1_H5.1_[A4T]_A5.1_F5.1_[A10T]_T5.1] | 864
43 | Id_ii_S2_P4E.4_K4.3_C4.2_[C-2T]_[T-1C]_H4.3_A4.1_F4.1_T4.2_[G10C] (ssRNA) RNA: UUUGAUUAAUAUGAUAUCGUUCUUUCUUCACACUAUUACUUUCUUUCUCGAUAUCAUAUUAAUCUUU | > 2300
44 | Id_ii_S2_P4E.4_K4.3_C4.2_[C-2T]_[T-1C]_H4.3_A4.1_F4.1_T4.2_[G10T]_[T11A] (ssRNA) RNA: UUUGAUUAAUAUGAUAUCGUUCUUUCUUCACACUAUUAUAUUCUUUCUCGAUAUCAUAUUAAUCUUU | 479
45 | Id_ii_S2_P4E.4_K4.3_C4.2_[C-2T]_[T-1C]_H4.3_A4.1_F4.1_T4.2_[G10T] (ssRNA) RNA: UUUGAUUAAUAUGAUAUCGUUCUUUCUUCACACUAUUAUUUUCUUUCUCGAUAUCAUAUUAAUCUUU | 1530
